In US20190177370A1 (TOKYO UNIVERSITY OF PHARMACY AND LIFE SCIENCES, published 2019):
Square brackets hold non-standard residues; d marks the D form. Primed or numbered codes have the meaning given here. * marks the point of attachment. m‑dPEG(4) = m-dPEG(4) acid, coupled to Acp, with Acp forms R^111 of Formula (4); Propanoyl(3,3-Ph2) = O=C(CC(c1ccccc1)c1ccccc1)*; 2Nal = N[C@@H](Cc1ccc2ccccc2c1)C(=O)O; Chg = N[C@H](C(=O)O)C1CCCCC1; Ahx = NCCCCCC(=O)O

B1: nPDM-75 (peptide)
peptide: H-WYIRWIR[Chg]QIWPR[Chg]RL-NH2
SMILES: CC[C@H](C)[C@H](NC(=O)[C@H](Cc1ccc(O)cc1)NC(=O)[C@@H](N)Cc1c[nH]c2ccccc12)C(=O)N[C@@H](CCCNC(=N)N)C(=O)N[C@@H](Cc1c[nH]c2ccccc12)C(=O)N[C@H](C(=O)N[C@@H](CCCNC(=N)N)C(=O)N[C@H](C(=O)N[C@@H](CCC(N)=O)C(=O)N[C@H](C(=O)N[C@@H](Cc1c[nH]c2ccccc12)C(=O)N1CCC[C@H]1C(=O)N[C@@H](CCCNC(=N)N)C(=O)N[C@H](C(=O)N[C@@H](CCCNC(=N)N)C(=O)N[C@@H](CC(C)C)C(N)=O)C1CCCCC1)[C@@H](C)CC)C1CCCCC1)[C@@H](C)CC
B2: nPDM-77 (peptide)
peptide: H-WYIRWIP[Chg]QIWSR[Chg]RL-NH2
SMILES: CC[C@H](C)[C@H](NC(=O)[C@H](CCC(N)=O)NC(=O)[C@@H](NC(=O)[C@@H]1CCCN1C(=O)[C@@H](NC(=O)[C@H](Cc1c[nH]c2ccccc12)NC(=O)[C@H](CCCNC(=N)N)NC(=O)[C@@H](NC(=O)[C@H](Cc1ccc(O)cc1)NC(=O)[C@@H](N)Cc1c[nH]c2ccccc12)[C@@H](C)CC)[C@@H](C)CC)C1CCCCC1)C(=O)N[C@@H](Cc1c[nH]c2ccccc12)C(=O)N[C@@H](CO)C(=O)N[C@@H](CCCNC(=N)N)C(=O)N[C@H](C(=O)N[C@@H](CCCNC(=N)N)C(=O)N[C@@H](CC(C)C)C(N)=O)C1CCCCC1
B3: nPDM-69 (peptide)
peptide: H-YYIR[2Nal]IKIQIWSKLRL-NH2
SMILES: CC[C@H](C)[C@H](NC(=O)[C@H](CCC(N)=O)NC(=O)[C@@H](NC(=O)[C@H](CCCCN)NC(=O)[C@@H](NC(=O)[C@H](Cc1ccc2ccccc2c1)NC(=O)[C@H](CCCNC(=N)N)NC(=O)[C@@H](NC(=O)[C@H](Cc1ccc(O)cc1)NC(=O)[C@@H](N)Cc1ccc(O)cc1)[C@@H](C)CC)[C@@H](C)CC)[C@@H](C)CC)C(=O)N[C@@H](Cc1c[nH]c2ccccc12)C(=O)N[C@@H](CO)C(=O)N[C@@H](CCCCN)C(=O)N[C@@H](CC(C)C)C(=O)N[C@@H](CCCNC(=N)N)C(=O)N[C@@H](CC(C)C)C(N)=O
B4: nPDM-66 (peptide)
peptide: H-WYIRWIK[Chg]QIWSK[Chg]RL-NH2
SMILES: CC[C@H](C)[C@H](NC(=O)[C@H](CCC(N)=O)NC(=O)[C@@H](NC(=O)[C@H](CCCCN)NC(=O)[C@@H](NC(=O)[C@H](Cc1c[nH]c2ccccc12)NC(=O)[C@H](CCCNC(=N)N)NC(=O)[C@@H](NC(=O)[C@H](Cc1ccc(O)cc1)NC(=O)[C@@H](N)Cc1c[nH]c2ccccc12)[C@@H](C)CC)[C@@H](C)CC)C1CCCCC1)C(=O)N[C@@H](Cc1c[nH]c2ccccc12)C(=O)N[C@@H](CO)C(=O)N[C@@H](CCCCN)C(=O)N[C@H](C(=O)N[C@@H](CCCNC(=N)N)C(=O)N[C@@H](CC(C)C)C(N)=O)C1CCCCC1
B5: nPDM-72 (peptide)
peptide: H-WYIRWIR[Chg]QIWSR[Chg]RL-NH2
SMILES: CC[C@H](C)[C@H](NC(=O)[C@H](CCC(N)=O)NC(=O)[C@@H](NC(=O)[C@H](CCCNC(=N)N)NC(=O)[C@@H](NC(=O)[C@H](Cc1c[nH]c2ccccc12)NC(=O)[C@H](CCCNC(=N)N)NC(=O)[C@@H](NC(=O)[C@H](Cc1ccc(O)cc1)NC(=O)[C@@H](N)Cc1c[nH]c2ccccc12)[C@@H](C)CC)[C@@H](C)CC)C1CCCCC1)C(=O)N[C@@H](Cc1c[nH]c2ccccc12)C(=O)N[C@@H](CO)C(=O)N[C@@H](CCCNC(=N)N)C(=O)N[C@H](C(=O)N[C@@H](CCCNC(=N)N)C(=O)N[C@@H](CC(C)C)C(N)=O)C1CCCCC1
B6: nPDM-71 (peptide)
peptide: H-WYIRWIR[Chg]QIWSK[Chg]RL-NH2
SMILES: CC[C@H](C)[C@H](NC(=O)[C@H](CCC(N)=O)NC(=O)[C@@H](NC(=O)[C@H](CCCNC(=N)N)NC(=O)[C@@H](NC(=O)[C@H](Cc1c[nH]c2ccccc12)NC(=O)[C@H](CCCNC(=N)N)NC(=O)[C@@H](NC(=O)[C@H](Cc1ccc(O)cc1)NC(=O)[C@@H](N)Cc1c[nH]c2ccccc12)[C@@H](C)CC)[C@@H](C)CC)C1CCCCC1)C(=O)N[C@@H](Cc1c[nH]c2ccccc12)C(=O)N[C@@H](CO)C(=O)N[C@@H](CCCCN)C(=O)N[C@H](C(=O)N[C@@H](CCCNC(=N)N)C(=O)N[C@@H](CC(C)C)C(N)=O)C1CCCCC1
B7: nPDM-76 (peptide)
peptide: H-WYIRWIR[Chg]PIWSR[Chg]RL-NH2
SMILES: CC[C@H](C)[C@H](NC(=O)[C@H](Cc1ccc(O)cc1)NC(=O)[C@@H](N)Cc1c[nH]c2ccccc12)C(=O)N[C@@H](CCCNC(=N)N)C(=O)N[C@@H](Cc1c[nH]c2ccccc12)C(=O)N[C@H](C(=O)N[C@@H](CCCNC(=N)N)C(=O)N[C@H](C(=O)N1CCC[C@H]1C(=O)N[C@H](C(=O)N[C@@H](Cc1c[nH]c2ccccc12)C(=O)N[C@@H](CO)C(=O)N[C@@H](CCCNC(=N)N)C(=O)N[C@H](C(=O)N[C@@H](CCCNC(=N)N)C(=O)N[C@@H](CC(C)C)C(N)=O)C1CCCCC1)[C@@H](C)CC)C1CCCCC1)[C@@H](C)CC
B8: 3,3-diphenylpropionyl-nPDM-85 (peptide)
peptide: {Propanoyl(3,3-Ph2)}-YIRWIR[Chg]QIWSR[Chg]PL-NH2
SMILES: CC[C@H](C)[C@H](NC(=O)[C@H](Cc1ccc(O)cc1)NC(=O)CC(c1ccccc1)c1ccccc1)C(=O)N[C@@H](CCCNC(=N)N)C(=O)N[C@@H](Cc1c[nH]c2ccccc12)C(=O)N[C@H](C(=O)N[C@@H](CCCNC(=N)N)C(=O)N[C@H](C(=O)N[C@@H](CCC(N)=O)C(=O)N[C@H](C(=O)N[C@@H](Cc1c[nH]c2ccccc12)C(=O)N[C@@H](CO)C(=O)N[C@@H](CCCNC(=N)N)C(=O)N[C@H](C(=O)N1CCC[C@H]1C(=O)N[C@@H](CC(C)C)C(N)=O)C1CCCCC1)[C@@H](C)CC)C1CCCCC1)[C@@H](C)CC
B9: nPDM-70 (peptide)
peptide: H-WYIRWIK[Chg]QIWSR[Chg]RL-NH2
SMILES: CC[C@H](C)[C@H](NC(=O)[C@H](CCC(N)=O)NC(=O)[C@@H](NC(=O)[C@H](CCCCN)NC(=O)[C@@H](NC(=O)[C@H](Cc1c[nH]c2ccccc12)NC(=O)[C@H](CCCNC(=N)N)NC(=O)[C@@H](NC(=O)[C@H](Cc1ccc(O)cc1)NC(=O)[C@@H](N)Cc1c[nH]c2ccccc12)[C@@H](C)CC)[C@@H](C)CC)C1CCCCC1)C(=O)N[C@@H](Cc1c[nH]c2ccccc12)C(=O)N[C@@H](CO)C(=O)N[C@@H](CCCNC(=N)N)C(=O)N[C@H](C(=O)N[C@@H](CCCNC(=N)N)C(=O)N[C@@H](CC(C)C)C(N)=O)C1CCCCC1
B10: nPDM-64 (peptide)
peptide: H-WYIRWIK[Chg]QIWSKLRL-NH2
SMILES: CC[C@H](C)[C@H](NC(=O)[C@H](CCC(N)=O)NC(=O)[C@@H](NC(=O)[C@H](CCCCN)NC(=O)[C@@H](NC(=O)[C@H](Cc1c[nH]c2ccccc12)NC(=O)[C@H](CCCNC(=N)N)NC(=O)[C@@H](NC(=O)[C@H](Cc1ccc(O)cc1)NC(=O)[C@@H](N)Cc1c[nH]c2ccccc12)[C@@H](C)CC)[C@@H](C)CC)C1CCCCC1)C(=O)N[C@@H](Cc1c[nH]c2ccccc12)C(=O)N[C@@H](CO)C(=O)N[C@@H](CCCCN)C(=O)N[C@@H](CC(C)C)C(=O)N[C@@H](CCCNC(=N)N)C(=O)N[C@@H](CC(C)C)C(N)=O
B11: nPDM-65 (peptide)
peptide: H-WYIRWIKIQIWSK[Chg]RL-NH2
SMILES: CC[C@H](C)[C@H](NC(=O)[C@H](CCC(N)=O)NC(=O)[C@@H](NC(=O)[C@H](CCCCN)NC(=O)[C@@H](NC(=O)[C@H](Cc1c[nH]c2ccccc12)NC(=O)[C@H](CCCNC(=N)N)NC(=O)[C@@H](NC(=O)[C@H](Cc1ccc(O)cc1)NC(=O)[C@@H](N)Cc1c[nH]c2ccccc12)[C@@H](C)CC)[C@@H](C)CC)[C@@H](C)CC)C(=O)N[C@@H](Cc1c[nH]c2ccccc12)C(=O)N[C@@H](CO)C(=O)N[C@@H](CCCCN)C(=O)N[C@H](C(=O)N[C@@H](CCCNC(=N)N)C(=O)N[C@@H](CC(C)C)C(N)=O)C1CCCCC1

target: T1, myostatin (UniProt O14793 267-375, limits assumed); assay: cell-based or functional assay
T1 sequence (looked up): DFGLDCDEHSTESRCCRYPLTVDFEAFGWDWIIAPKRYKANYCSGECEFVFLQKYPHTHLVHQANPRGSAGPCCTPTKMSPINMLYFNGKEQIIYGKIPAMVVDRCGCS

Myostatin inhibitory activity at 0.3 µM (luciferase reporter assay), ≥ 40 % inhibition:
B1
B2
H-AWYIRWIKIQIWSKLRL-NH2 [A-nPDM-55/E31R]
B3
B4
B5
B6
B7
B8
B9
B10
B11
H-WYIRWIR[Chg]QIWSR[Chg]PL-NH2 [nPDM-73]

Myostatin inhibitory activity at 1 µM (luciferase reporter assay), ≥ 40 % inhibition:
H-WYFRWIKIQIWSKLRL-NH2 [nPDM-67]
{m‑dPEG(4)-Ahx}-WWIEWIKIQIISKLRL-NH2 [PDM-30]
B3
B4
{m‑dPEG(4)-Ahx}-YYIEWIKIQIISKLRL-NH2 [PDM-29]
B10
B11
